Measurements reported in US20240238445A1, “INHIBITORS AND USES THEREOF” (NEURACLE SCIENCE CO., LTD., priority 2021, published 2024).

How the values were obtained:
[1] = molecular target: binding of FAM19A5 protein to LRRC4B (amino acids 453-576)-hFc (Homo sapiens, UniProt Q7Z5A7); test: Competitive inhibition assay, plate coated with LRRC4B (amino acids 453-576)-hFc, peptides at 20 nM
Description: (§1) Next, to assess whether polypeptides comprising the binding domains of LRRC4 or LRRC4C proteins can have similar inhibitory effects on LRRC4B protein binding, the following synthetic peptides were constructed: (1) FBC4-23 (contains the binding domain of the LRRC4 protein, i.e., YSFFTTVTVETTE); and (2) FBC4C-23 (contains the binding domain of the LRRC4C protein, i.e., FSYFSTVTVETME). Then, the ability of the peptides to inhibit the binding of LRRC4 protein family members to FAM19A5 protein was assessed using a competitive inhibition assay. Briefly, plates were coated with 100 nM of either LRRC4B protein fragment #1 (amino acids 36-576 of SEQ ID NO: 2; SEQ ID NO: 5) or LRRC4B protein fragment #2 (amino acids 453-576 of SEQ ID NO: 2; SEQ ID NO: 7). Then, recombinant FAM19A5 protein (5 ng/ml for plates coated with LRRC4B fragment #1; and 1 ng/mL for plates coated with LRRC4B fragment #2) was added to the plates in combination with 20 nM of the FBC4-23, FBC4C-23, and FB-20 peptides. The plates were incubated at 37° C. and then, the amount of FAM19A5 protein bound to the coated LRRC4B protein fragments was assessed using HRP-conjugated anti-FAM19A5 (1-65) antibody.
(§2) Next, to determine the minimal sequence required to inhibit the interaction of FAM19A5 and members of the LRRC4 protein family, ten FB-20 peptide variants were constructed by serially deleting one or more amino acids from the N-terminus or C-terminus of the FB-20 peptide. Then, a competitive inhibition assay was used to assess the ability of the different FB-20 peptide variants to inhibit the interaction between FAM19A5 and LRRC4B protein. Again, plates were coated with 100 nM of either LRRC4B protein fragment #1 (amino acids 36-576 of SEQ ID NO: 2; SEQ ID NO: 5) or LRRC4B protein fragment #2 (amino acids 453-576 of SEQ ID NO: 2; SEQ ID NO: 7). Then, recombinant FAM19A5 protein (5 ng/ml for plates coated with LRRC4B fragment #1; and 1 ng/mL for plates coated with LRRC4B fragment #2) was added to the plates in combination with 20 nM of the different peptides described above. After incubating the plates at 37° C., the amount of FAM19A5 protein bound to the coated LRRC4B protein fragments was assessed using HRP-conjugated anti-FAM19A5 (1-65) antibody.
To identify the critical amino acid residues, multiple FB-20 peptide mutants were constructed, in which the individual residues of the core binding domain (i.e., YTYFTTVTVETLE; SEQ ID NO: 15) were substituted with alanine (A) or asparagine (N). Then, the ability of these FB-20 peptide mutants to inhibit the interaction between LRRC4B and FAM19A5 proteins was assessed, as described in Examples 3 and 4.

[2] = molecular target: binding of FAM19A5 protein to full-length ectodomain of the LRRC4B protein (amino acids 36-576 of SEQ ID NO: 2) (Homo sapiens, UniProt Q7Z5A7); test: Competitive inhibition assay, plate coated with full-length ectodomain of LRRC4B (amino acids 36-576); details: for inhibition of interaction between FAM19A5 and the coated LRRC4B protein fragments (in words): statement covers both coats, LRRC4B (36-576) and LRRC4B (453-576)
Procedure: Next, to further assess the role that the binding domain of the LRRC4B protein has on the interaction between FAM19A5 protein and members of the LRRC4 protein family, a competitive inhibition assay was used to determine whether different LRRC4B deletion constructs from Example 2 could inhibit the binding of FAM19A5 to the full-length ectodomain of the LRRC4B protein (i.e., amino acids 36-576 of SEQ ID NO: 2; SEQ ID NO: 5). Briefly, 100 nM of the full-length ectodomain of the LRRC4B protein was used to coat a plate, and then recombinant FAM19A5 protein (5 ng/mL) was added to the plate in combination with the following LRRC4B deletion constructs (increasing concentrations): (1) LRRC4B (453-576) (i.e., construct #11 in Table 6); (2) LRRC4B (453-576) mutant (comprises alanine substitutions at positions 488 and 489 of SEQ ID NO: 2; SEQ ID NO: 16); (3) LRRC4B (484-576) (i.e., construct #12 in Table 6); (4) LRRC4B (482-576); (5) LRRC4B (482-497); and (6) LRRC4B (498-576). The plates were incubated at 37° C., and then, the amount of FAM19A5 bound to the coated LRRC4B ectodomain protein was measured using HRP-conjugated anti-FAM19A5 (1-65) antibody.
As described in Example 3, there appeared to be much similarity in the binding domains of the different members of the LRRC4 family. […] Then, recombinant FAM19A5 protein (5 ng/mL) was added in combination with one of the following: (i) LRRC4B (484-576) protein fragment, (ii) LRRC4B (453-576, AA) protein fragment, and (iii) synthetic FB-20 peptide. The plates were incubated at 37° C., and then, the amount of FAM19A5 protein bound to the coated LRRC4, LRRC4B, or LRRC4C proteins was measured using anti-FAM19A5 (1-65) antibody.
as §1
as §2, with “antibody. […]” for “antibody.”

[3] = molecular target: T1, FAM19A5 protein (Homo sapiens, UniProt Q7Z5A7); test: competitive inhibition ELISA; competitor: coated LRRC4B(36-576)-hFc
[4] = molecular target: T1, FAM19A5 protein; test: competitive inhibition ELISA; competitor: coated LRRC4B(453-576)-hFc
[5] = Table 10, alanine/asparagine mutants
[6] = Table 9, deletion variants, 20 nM peptide, FAM19A5 1 ng/mL
[7] = Table 9, deletion variants, 20 nM peptide, FAM19A5 5 ng/ml
[8] = Table 8, 20 nM peptide, FAM19A5 1 ng/mL
[9] = Table 8, 20 nM peptide, FAM19A5 5 ng/ml

binding of FAM19A5 protein to LRRC4B (amino acids 453-576)-hFc, sequence (Q7Z5A7 44-132): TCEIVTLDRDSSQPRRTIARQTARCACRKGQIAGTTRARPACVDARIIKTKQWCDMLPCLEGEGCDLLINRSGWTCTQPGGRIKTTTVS
binding of FAM19A5 protein to full-length ectodomain of the LRRC4B protein (amino acids 36-576 of SEQ ID NO: 2), sequence (Q7Z5A7 44-132): as above

Molecule | Inhibition rate (%) LRRC4B (amino acids 453-576)-hFc [1, 6] [%] | inhibition of interaction between FAM19A5 and the coated LRRC4B protein fragments (in words) ([2]; 20 nM peptide) | Inhibition rate (%) LRRC4B (amino acids 36-576)-hFc [2, 7] [%] | Inhibition rate (%) [3] [%] | Inhibition rate (%) [4] [%] | also measured
GYTYNTTVTVETLETQPGEE [FB-20[N4]] | – | – | – | – | – | Inhibition rate (%) LRRC4B (amino acids 453-576)-hFc [1, 5]: 2.5%; Inhibition rate (%) LRRC4B (amino acids 36-576)-hFc [2, 5]: −1.3%
KNFTTVTVETNKETQ [FB-m8dN] | −1.1 | failed to significantly inhibit | 3.3 | – | – | –
KNTTVTVETNKETQ [FB-m7dN] | −1.8 | failed to significantly inhibit | 2.0 | – | – | –
KNTYFTTVTVETNKETQ [FB-m10dN] | 0.0 | failed to significantly inhibit | 7.7 | – | – | –
KNYFTTVTVETNKETQ [FB-m9dN] | −1.6 | failed to significantly inhibit | 2.5 | – | – | –
KNYTYFTTNKETQ [FB-m6dC] | 5.5 | failed to significantly inhibit | 14.9 | – | – | –
KNYTYFTTVNKETQ [FB-m7dC] | 0.4 | failed to significantly inhibit | 4.4 | – | – | –
KNYTYFTTVTNKETQ [FB-m8dC] | −0.9 | failed to significantly inhibit | 5.1 | – | – | –
KNYTYFTTVTVENKETQ [FB-m10dC] | 21.9 | – | 62.0 | – | – | –
KNYTYFTTVTVETNKETQ [FB-m11dC] | 30.4 | substantially inhibited the interaction | 65.0 | – | – | –
KNYTYFTTVTVNKETQ [FB-m9dC] | 2.7 | failed to significantly inhibit | 16.8 | – | – | –
NFSYFSTVTVETMEPSQDERTTR [FBC4C-23] | – | significantly decreased the interaction | – | – | – | Inhibition rate (%) LRRC4B (amino acids 453-576)-hFc [1, 8]: 40.4%; Inhibition rate (%) LRRC4B (amino acids 36-576)-hFc [2, 9]: 65.7%
NYSFFTTVTVETTEISPEDTTRK [FBC4-23] | – | significantly decreased the interaction | – | – | – | Inhibition rate (%) LRRC4B (amino acids 453-576)-hFc [1, 8]: 40.4%; Inhibition rate (%) LRRC4B (amino acids 36-576)-hFc [2, 9]: 64.1%
GYNYFTTVTVETLETQPGEE [FB-20[N2]] | – | – | – | -0.7 | -2 | –
GNTYFTTVTVETLETQPGEE [FB-20[N1]] | – | – | – | 11.9 | 3.1 | –
GYTAFTTVTVETLETQPGEE [FB-20[A3]] | – | – | – | 5.9 | 0 | –
GYAYFTTVTVETLETQPGEE [FB-20[A2]] | – | – | – | 1 | -0.4 | –
GATYFTTVTVETLETQPGEE [FB-20[A1]] | – | – | – | 17.2 | 3.6 | –

Further lines, with some results ahead:

Inhibition rate (%) LRRC4B (amino acids 453-576)-hFc [1, 6] [%] | inhibition of interaction between FAM19A5 and the coated LRRC4B protein fragments (in words) ([2]; 20 nM peptide) | Inhibition rate (%) LRRC4B (amino acids 36-576)-hFc [2, 7] [%] | Inhibition rate (%) [3] [%] | Inhibition rate (%) [4] [%] | Molecule | also measured
– | – | – | 2.9 | -2.4 | GYTYFTTVNVETLETQPGEE [FB-20[N8]] | –
– | – | – | 27 | 10.8 | GYTYFTTVTVNTLETQPGEE [FB-20[N10]] | –
– | – | – | 24.5 | 8.3 | GYTYFTTNTVETLETQPGEE [FB-20[N7]] | –
– | – | – | 56.1 | 30.5 | GYTYFNTVTVETLETQPGEE [FB-20[N5]] | –
– | – | – | 17.5 | 6.5 | GYTYFTTVTNETLETQPGEE [FB-20[N9]] | –
– | – | – | -5 | 4 | GYTNFTTVTVETLETQPGEE [FB-20[N3]] | –
– | – | – | -1.3 | 2.5 | GYTYNTTVTVETLETQPGEE [FB-20[N4]] | –
– | – | – | -11.4 | -0.4 | GYTYFTNVTVETLETQPGEE [FB-20[N6]] | –
– | – | – | 74.1 | 55.6 | GYTYFTTVTVENLETQPGEE [FB-20[N11]] | –
